Measurements from IntAct's records for PubMed 15694340.

B1: Phorbol-12-myristate-13-acetate-induced protein 1 (Homo sapiens), Q13794 (parent)
chain: MPGKKARKNAQPSPARAPAELEVECATQLRRFGDKLNFRQKLLNLISKLFCSGT
partner: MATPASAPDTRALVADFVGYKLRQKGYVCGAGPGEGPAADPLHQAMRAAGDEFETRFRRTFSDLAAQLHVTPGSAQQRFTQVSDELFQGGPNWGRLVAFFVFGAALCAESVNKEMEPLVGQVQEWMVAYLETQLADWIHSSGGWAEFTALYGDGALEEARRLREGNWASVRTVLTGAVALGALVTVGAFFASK
B2: Phorbol-12-myristate-13-acetate-induced protein 1 (Homo sapiens), Q13794 (parent)
chain: B1 chain
B3: Bcl-2-like protein 11 (Mus musculus), O54918 (parent)
chain: MAKQPSDVSSECDREGGQLQPAERPPQLRPGAPTSLQTEPQGNPDGEGDRCPHGSPQGPLAPPASPGPFATRSPLFIFVRRSSLLSRSSSGYFSFDTDRSPAPMSCDKSTQTPSPPCQAFNHYLSAMASIRQSQEEPEDLRPEIRIAQELRRIGDEFNETYTRRVFANDYREAEDHPQMVILQLLRFIFRLVWRRH

Variants of: B1
Conditions: with BCL2L2, Q92843

| effect of a mutation on the interaction | Variant |
| --- | --- |
| increasing interaction | K35E |
| increasing interaction | F32I |

Variants of: B2
Conditions: with BCL2L1, Q07817-1
BCL2L1, Q07817-1, sequence (Q07817 whole entry): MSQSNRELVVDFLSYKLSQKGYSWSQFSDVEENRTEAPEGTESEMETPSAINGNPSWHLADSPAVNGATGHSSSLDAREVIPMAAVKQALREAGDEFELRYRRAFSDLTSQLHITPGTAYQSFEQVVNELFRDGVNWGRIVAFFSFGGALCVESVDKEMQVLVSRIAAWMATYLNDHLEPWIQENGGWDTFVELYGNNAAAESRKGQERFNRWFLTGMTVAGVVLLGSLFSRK

| effect of a mutation on the interaction | Variant |
| --- | --- |
| increasing interaction | K35E |
| increasing interaction | F32I |

Variants of: B3
Conditions: with mcl1_mouse Mcl1, P97287
mcl1_mouse Mcl1, P97287, sequence (P97287 whole entry): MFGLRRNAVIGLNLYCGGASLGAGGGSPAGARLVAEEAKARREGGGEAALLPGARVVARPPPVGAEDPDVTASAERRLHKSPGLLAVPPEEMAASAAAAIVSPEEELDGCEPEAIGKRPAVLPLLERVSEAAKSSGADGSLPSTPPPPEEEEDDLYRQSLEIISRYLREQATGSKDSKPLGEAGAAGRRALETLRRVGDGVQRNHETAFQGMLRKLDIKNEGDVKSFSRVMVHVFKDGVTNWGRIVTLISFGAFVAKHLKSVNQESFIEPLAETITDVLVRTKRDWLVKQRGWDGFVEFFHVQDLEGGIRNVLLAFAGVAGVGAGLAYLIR

| effect of a mutation on the interaction | Variant |
| --- | --- |
| decreasing interaction | I153E |
| decreasing interaction | F157E |
| decreasing interaction | I146E |
| decreasing interaction | L150E |
